Laboratory results published in the supplement of paper PMC9732359.
± gives the uncertainty stated by the source.

Test: protein stability index of a GFP-peptide fusion (yeast GPS) (PSI 1-4); higher = more stable; sorted into four equal gates, so the index is relative within each strain
Method in brief: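 For each peptide, the protein stability index sums the read frequency in every gate after multiplying it by the gate number. Read frequencies came from plasmids that were PCR-amplified from each gate and Illumina-sequenced, with reads assigned to strains by barcodes. The gates were four equal bins of GFP/Cherry fluorescence ratio applied to mid-log yeast in leucine-free medium carrying a pooled library of tiled 17-residue yeast protein peptides fused downstream of GFP on a Cherry-expressing plasmid.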

Sequence | protein stability index (doa10∆) | protein stability index (pdr5∆) | protein stability index (san1∆) | protein stability index (ubr1∆)
WNLLRSLYIFFTTLLES [YML103C/NUP188] | 2.08 ± 0.058 | 1.58 ± 0.044 | 1.69 ± 0.06 | 1.43 ± 0.028
WNVEKFKKDFEVNISSL [RPC40] | 2.03 ± 0.11 | 2.98 ± 0.12 | 2.6 ± 0.084 | 2.59 ± 0.082
WPIVQKTYEPVLNEDDL [RPN5] | 2.32 ± 0.068 | 2.59 ± 0.11 | 1.85 ± 0.098 | 2.27 ± 0.071
WPQSKNCEYEDPPNEGD [RPB3] | 3.45 ± 0.25 |  |  | 3.2 ± 0.14
WSEISNELPDIEALYDD [RPN2] | 3.49 ± 0.29 | 3.57 ± 0.25 | 3.29 ± 0.16 | 3.12 ± 0.11
WSSEFAKWAPTLRTISF [SNF2] | 2.36 ± 0.057 | 2.41 ± 0.043 | 2.78 ± 0.063 | 2.47 ± 0.056
WTMAFRTMDDIKDSVRE [ECM29] |  | 2.5 ± 0.16 | 2.67 ± 0.11 | 2.66 ± 0.12
YACISSRPGQSGRCDGY [RPS8A] | 3.02 ± 0.1 | 3.21 ± 0.12 | 3.35 ± 0.097 | 3.28 ± 0.046
YCDKNFRENMSKEETVD [PRE3] | 3.02 ± 0.076 | 3.09 ± 0.073 | 3.04 ± 0.066 | 2.92 ± 0.049
YDALLSINVHSNNITSG [RET1] | 2.52 ± 0.061 | 2.66 ± 0.057 | 2.59 ± 0.059 | 2.76 ± 0.04
YDRKKLPRKEVDDVLGG [RPC11] | 3.2 ± 0.1 | 3.64 ± 0.14 | 3.29 ± 0.065 | 3.32 ± 0.099
YDSDSDSSVEDSTDNEN [LIN1] | 3.08 ± 0.071 | 2.95 ± 0.1 | 2.91 ± 0.12 | 3.1 ± 0.042
YDSRTTIFSPEGRLYQV [PRE9] | 3.02 ± 0.1 | 3.31 ± 0.075 | 2.97 ± 0.078 | 3.09 ± 0.063
YDYYALQLLPLQKAVRG [SNF2] | 1.63 ± 0.05 | 2.24 ± 0.044 | 1.87 ± 0.09 | 1.74 ± 0.035
YEEFRDVAIENNTLSRY [RRP43] | 3.24 ± 0.042 | 3.25 ± 0.043 | 3.178 ± 0.029 | 3.2 ± 0.035
YEIRDIDQDIHGIVFQH [SSN2] | 2.5 ± 0.049 | 2.6 ± 0.056 | 2.72 ± 0.051 | 2.75 ± 0.033
YELYINKLTILGRDYPI [IRR1] | 1.31 ± 0.032 | 1.57 ± 0.038 | 1.44 ± 0.055 | 2.04 ± 0.032
YESIATYASVTGLFTLE [RPN7] |  |  |  | 1.96 ± 0.29
YEYAEHDLLQIIHFHSH [SSN3] | 2.31 ± 0.062 | 2.59 ± 0.054 | 2.5 ± 0.045 | 2.63 ± 0.04
YFKLDLTSDLVYFGDEN [RRI2] | 2.09 ± 0.15 | 2.47 ± 0.3 |  | 1.48 ± 0.08
YFLDVKCPGCLNITTVF [RPS27A] | 2.64 ± 0.054 | 2.6 ± 0.055 | 2.19 ± 0.1 | 2.85 ± 0.054
YGILSIDDLIHEIITVG [RPL7A] | 2.36 ± 0.079 | 2.37 ± 0.1 | 2.58 ± 0.11 | 1.56 ± 0.061
YGITHGLTNWAAAYATG [RPL5] | 2.17 ± 0.086 | 2.43 ± 0.067 | 2.28 ± 0.09 | 2.26 ± 0.056
YGNRAEQFLETDSDFAK [SRP68] | 3.15 ± 0.12 | 2.99 ± 0.08 | 3.26 ± 0.083 | 3.23 ± 0.065
YGPPGTGKTLLARACAA [RPT5] | 2.5 ± 0.13 | 2.53 ± 0.081 | 2.29 ± 0.18 | 
YGVSFFTIQSFVSSLSN [BRR2] | 1.47 ± 0.052 | 1.32 ± 0.058 | 1.18 ± 0.087 | 1.42 ± 0.054

Sequence | protein stability index (doa10∆) | protein stability index (pdr5∆) | protein stability index (san1∆) | protein stability index (ubr1∆)
YIKYNILLTSISRERDL [SRP68] | 1.69 ± 0.07 | 1.58 ± 0.062 | 1.83 ± 0.12 | 1.91 ± 0.094
YINDVHLLYPPHIIAVA [SSN8] | 1.74 ± 0.057 | 1.46 ± 0.041 | 2.15 ± 0.072 | 1.67 ± 0.065
YINVSRGTDIDRINYTE [SRB5] |  |  |  | 3.02 ± 0.22
YKDSLALINDLLREFKK [RPN6] |  | 2.42 ± 0.22 | 1.86 ± 0.22 | 3.21 ± 0.23
YKFLDQNSDASTLEPTL [YIL149C/MLP2] | 2.24 ± 0.11 | 1.65 ± 0.092 | 2.27 ± 0.09 | 2.67 ± 0.18
YKKIPLLGPTLEDHTPP [QCR10] | 2.34 ± 0.05 | 2.59 ± 0.057 | 2.42 ± 0.083 | 2.76 ± 0.029
YKLTNDEEGIFSRFVDQ [YCG1] | 2.94 ± 0.12 | 2.83 ± 0.13 | 3 ± 0.085 | 2.94 ± 0.057
YLAKELNLTGPKVPEDI [RPN1] | 3.26 ± 0.23 | 3.24 ± 0.27 | 2.38 ± 0.24 | 
YLGEGPRMVRDVFRLAR [RPT3] | 2.79 ± 0.14 | 2.96 ± 0.053 | 2.8 ± 0.14 | 2.88 ± 0.09
YLGTKVELPYGAHGYSG [PRE1] | 2.77 ± 0.18 | 2.38 ± 0.11 | 2.5 ± 0.1 | 2.96 ± 0.086
YLHNVELGEKKNEKLKF [ISW2] | 2.84 ± 0.083 | 2.68 ± 0.094 | 2.89 ± 0.096 | 2.87 ± 0.1
YLIKLLGFEVKDQALIG [SIR2] | 1.92 ± 0.061 | 2.08 ± 0.06 | 2.1 ± 0.061 | 2.73 ± 0.087
YLREDQMIDTSILPTRD [NUT1] | 3.21 ± 0.069 | 2.98 ± 0.068 | 2.94 ± 0.072 | 2.42 ± 0.048
YMEKGTQLDDLQHELMI [YML103C/NUP188] | 2.62 ± 0.058 | 2.31 ± 0.059 | 2.19 ± 0.063 | 2.25 ± 0.035
YMVSRAIRDGVIEAKIN [RPN3] |  | 3.28 ± 0.17 | 2.95 ± 0.12 | 2.8 ± 0.15
YNLLVKISLHKREYLEV [RPN5] | 1.5 ± 0.1 | 1.21 ± 0.12 | 1.34 ± 0.17 | 1.43 ± 0.092
YPDFRHYGLAVDIYTHF [DIS3] | 2.17 ± 0.041 | 2.32 ± 0.041 | 1.9 ± 0.066 | 2.2 ± 0.031
YPDLCSIYDKWTDPNLK [RPN1] | 2.69 ± 0.091 | 2.66 ± 0.072 | 2.21 ± 0.11 | 2.93 ± 0.085
YPDLQPFVLAENMWPFS [CDC53] | 1.68 ± 0.05 | 2.09 ± 0.044 | 2.01 ± 0.055 | 1.71 ± 0.044
YPESISNELIEHFSHFG [YDL088C/ASM4] | 2.76 ± 0.067 | 3.02 ± 0.048 | 2.89 ± 0.043 | 2.93 ± 0.034
YPIYELLMSCPRLSHLS [GRR1] | 1.42 ± 0.056 | 1.4 ± 0.048 | 1.45 ± 0.14 | 1.39 ± 0.052
YPNEVLKFNHGNYSHLM [REC8] | 2.7 ± 0.13 | 2.65 ± 0.059 | 2.76 ± 0.059 | 2.88 ± 0.061
YQEDIFVSESPSFVKSG [ISW2] | 2.85 ± 0.098 | 2.47 ± 0.077 | 2.48 ± 0.13 | 2.73 ± 0.045
YQELAYRATSLDPSLRA [YML031W/NDC1] | 2.8 ± 0.049 | 2.89 ± 0.041 | 2.83 ± 0.036 | 2.61 ± 0.031
YQGVYSMGSILLSFVLG [YML031W/NDC1] | 2.29 ± 0.074 | 2.14 ± 0.11 | 2.58 ± 0.11 | 2.44 ± 0.12
YQKEYETAERNIIQAKR [RPL7A] | 2.81 ± 0.25 | 2.75 ± 0.14 | 1.94 ± 0.16 | 
